The source of these data is FireProtDB.

B1: A9L|S25F|Q100R|L110F|G118A|L120R|H125R|D139G|A149L|S169A|E237D, Q88HV5 (parent)
chain: MPFQQGLLATPVPAHARHLFFTLQSPEALPAALDALLPQVDGKQLLLGVGAPLAKALGREIPGLRPFPLLDAAVENPSTQHALWLWLRGDERGDLLLRTQALEQALAPALSLADSVDGFLHRGGHDLTGYEDGTENPTDEEAVQAAIAADGSSFAAFQLWKHDLQYFKSLPQADQDNIIGRRLSDNEELDDAPASAHVKRTAQESFEPEAFMVRRSVSWADQRGAGLAFVALGKSFEAFEVQLRRMSGLEDGIIDGLYRFSRPLTGGYYWCPPMSETGVDLSPLLRA
B2: Formate dehydrogenase, O13437 (parent)
chain: MKIVLVLYDAGKHAADEEKLYGCTENKLGIANWLKDQGHELITTSDKEGETSELDKHIPDADIIITTPFHPAYITKERLDKAKNLKLVVVAGVGSDHIDLDYINQTGKKISVLEVTGSNVVSVAEHVVMTMLVLVRNFVPAHEQIINHDWEVAAIAKDAYDIEGKTIATIGAGRIGYRVLERLLPFNPKELLYYDYQALPKEAEEKVGARRVENIEELVAQADIVTVNAPLHAGTKGLINKELLSKFKKGAWLVNTARGAICVAEDVAAALESGQLRGYGGDVWFPQPAPKDHPWRDMRNKYGAGNAMTPHYSGTTLDAQTRYAEGTKNILESFFTGKFDYRPQDIILLNGEYVTKAYGKHDKK
B3: FMN-dependent NADH:quinone oxidoreductase 1, Q88IY3 (parent)
chain: MKLLHIDSSILGDNSASRQLSREVVEAWKAADPSVEVVYRDLAADAIAHFSAATLVAAGTPEDVRDAAQAFEAKLSAETLEEFLAADAVVIGAPMYNFTVPTQLKAWIDRVAVAGKTFRYTEAGPQGLCGNKKVVLVSTAGGLHAGQPTGAGHEDFLKVFLGFIGITDLEIVRAHGLAYGPEQRSQAIDAAQAQIASELFAAA

The variants in one series derive from B1. The following applies: Pseudomonas putida (strain ATCC 47054 / DSM 6125 / CFBP 8728 / NCIMB 11950 / KT2440); pH 7.6; Fluorescence spectroscopy; whole UniProt chain shown.
Turning to A9L S25F Q100R L110F G118A L120R H125R D139G A149L S169A E237D, the Tm stood at 70 °C.
The same measure, in the same setting: in the case of A9L S25F D139G A149L A155V it was 68 °C; in that of L7I R17V A28D A35R L110F S111V S115E L120R H121Y G123D T138Q D139G E140D Q144E A149D Q165D D174E K234H E237D, 65 °C; in that of A9L Q100R L110F G118A L120R H125R D139G L232F V279L, 74 °C.
In the case of A9L S25F A54V E91D D94E L110F G118A L120R H125R D139G A149L S169A V217M S218P Q222G L232F E237D V279L, the Tm amounted to 70 °C.
Still for that read-out and setting: to A9L S25F A54V D94E Q100R L110F A149L A155V V217M S218P Q222G belongs 66 °C; to L7I R17V A28D E91D L96F L97H T99A E103I L110F S111V S115E L120R H121Y G123D T138Q A149D Q165D, 71 °C; to L7I R17V A28D A35R E91D E103I L110F S111V S115E L120R H121Y G123D T138Q D139G E140D Q144E Q165D K234H E237D, 73 °C.
On the same count and under the same terms, in the case of L7I R17V V49I Q165D D174E V217M Q222G E237D P283A it was 68 °C; in that of A9L S25F A54V D139G S169A D174E E237D, 65 °C.
Still for that read-out and setting: to L7I R17V A35R Q165D E237D belongs 75 °C; to L7I R17V A28D A35R V49I A149D D174E Q222G K234H E237D, 69 °C.
For A9L S25F A54V A149L V217M S218P Q222G L232F E237D, the Tm came to 66 °C.
A9L E91D D94E Q100R L110F G118A L120R H125R D139G A149L A155V S169A V217M S218P Q222G L232F V279L: the Tm worked out at 69 °C.
Same read-out and setting: in the case of S25F E91D D94E L110F G118A L120R H125R D139G A149L A155V S169A D174E it was 75 °C; in that of R17V A28D V49I E91D L96F L97H T99A E103I T138Q D139G E140D Q144E A149D Q165D D174E A194E V217M Q222G K234H E237D P283A, 82 °C; in that of L7I R17V A28D A35R V49I E91D L96F L97H T99A E103I L110F S111V S115E L120R H121Y G123D T138Q D139G E140D Q144E A149D Q165D D174E A194E V217M Q222G K234H E237D P283A, 83 °C.
As to L7I R17V A28D A35R V49I E91D L96F L97H T99A E103I Q165D V217M Q222G K234H E237D, the Tm was 67 °C.
On the same count and under the same terms, to V49I E91D L96F L97H T99A E103I L110F S111V S115E V217M Q222G belongs 65 °C; to L7I R17V V49I Q165D V217M Q222G K234H P283A, 73 °C.
As to A9L S25F D139G A149L A155V V279L, the Tm is 68 °C.
Still for that read-out and setting: to A28D A35R V49I L110F S111V S115E L120R H121Y G123D T138Q D139G E140D Q144E A149D Q222G P283A belongs 74 °C.
On the same count and under the same terms, to L7I R17V V49I Q165D V217M K234H E237D P283A belongs 68 °C; to A9L S25F A54V E91D D94E Q100R L110F G118A L120R H125R D139G A149L V217M S218P Q222G L232F E237D, 83 °C; to A9L S25F L110F G118A L120R H125R S169A D174E V217M S218P Q222G L232F E237D, 75 °C.
On the same count and under the same terms, to L7I R17V A28D V49I E91D L96F L97H T99A E103I L110F S111V S115E L120R H121Y G123D T138Q D139G E140D Q144E A149D belongs 65 °C; to L7I A194E Q222G K234H E237D, 65 °C; to L7I E91D L110F S111V Q165D D174E A194E V217M Q222G K234H E237D, 71 °C.
Take A9L S25F A54V E91D D94E Q100R L110F G118A L120R H125R D139G A149L A155V S169A D174E V217M S218P Q222G L232F E237D V279L: the Tm was 74 °C.

Variants of B2 are the subject of a further series. The conditions noted are these: Candida boidinii; whole UniProt chain shown.
With A10C, the Tm worked out at 64 °C.
The same measure, in the same setting: in the case of C23S it was 54 °C; in that of N350W, 54 °C; in that of A264P, 59 °C.
Still for that read-out and setting: to S333Y belongs 55 °C; to A141M, 35 °C.
Regarding D149L, the Tm came out at 58 °C.

The next series covers variants of B3. The conditions noted are these: Pseudomonas putida (strain ATCC 47054 / DSM 6125 / CFBP 8728 / NCIMB 11950 / KT2440); Fluorescence spectroscopy; whole UniProt chain shown.
Q192R A46P V159A C129S: the Tm was 51 °C and the “ddG of mutation (higher = less stable)” value was -0.6 kcal/mol.
The like results for Q192R A46P V159A A48P were, in that order, 55 °C and 3.3 kcal/mol.
In the same order, the values of Q192R A46P V159A C129S D7H A178D are 54 °C and 1.5 kcal/mol.
The like results for Q192R A46P V159A C129S A178D A88G N131D L143Q were, in that order, 44 °C and -1.9 kcal/mol.
As for Q192R A46P V159A A48P Y179H, the Tm is 55 °C and the “ddG of mutation (higher = less stable)” value is -0.3 kcal/mol.
In the same order, the values of Q192R A46P V159A are 55 °C and -0.8 kcal/mol.
